The target in series [1] is T1, wild type Hsc70 (nematode Hsc70, HSP-1) (C. elegans, UniProt P09446 1-640).
T1 construct: Hsc70 (HSP-1) of C. elegans, encoded by hsp-1, the sole functional Hsc70-like protein of the nematode; About 70 kDa by ultracentrifugation; also called Hsc70 wild type; CeHsc70; source: expressed from pET28b-Hsc70, purified (Ni-NTA, ion-exchange, size exclusion chromatography)
The experiment in a line: AUC; sedimentation velocity with fluorescence detection, 300 nM *BAG-1 with 2 µM Hsc70 variant, 42,000 rpm, 20 °C, 40 mM HEPES/KOH pH 7.5, 150 mM KCl, 1 mM DTT, 5 mM MgCl2; without nucleotide, and with ADP (complex diminished). The settings on record: both partners purified.

Another series deals with T2, Hsc70 D233N (C. elegans, UniProt P09446 1-640, D233N).
T2 construct: Hsc70 (HSP-1) of C. elegans, encoded by hsp-1, with the suppressor mutation D233N; Mutation was found in a mutagenesis screen as a suppressor of unc-23(e25); source: expressed from mutated pET28b-Hsc70 (QuickChange PCR), purified (Ni-NTA, ion-exchange, size exclusion chromatography)
Described as above. The settings on record: both partners purified.

A further series has as its target T3, Hsc70 A379V (C. elegans, UniProt P09446 1-640, A379V).
T3 construct: Hsc70 (HSP-1) of C. elegans, encoded by hsp-1, with the suppressor mutation A379V; Mutation was found in a mutagenesis screen as a suppressor of unc-23(e25); source: expressed from mutated pET28b-Hsc70 (QuickChange PCR), purified (Ni-NTA, ion-exchange, size exclusion chromatography)
The series is described as above. The settings on record: both partners purified.

For a further series, the target named is T4, Hsc70 D384N (C. elegans, UniProt P09446 1-640, D384N).
T4 construct: Hsc70 (HSP-1) of C. elegans, encoded by hsp-1, with the suppressor mutation D384N; Mutation was identified as a suppressor of unc-23(ok1408); source: expressed from mutated pET28b-Hsc70 (QuickChange PCR), purified (Ni-NTA, ion-exchange, size exclusion chromatography)
The series is described as above. The settings on record: both partners purified.

Series [2] concerns the molecule itself. The experiment in a line: AUC; sedimentation velocity, UV/VIS optics, 0.5 mg/mL protein; dc/dt plots and UltraScan II analysis; oligomerization status of Hsc70 variants.

T4 sequence (P09446 whole entry D384N): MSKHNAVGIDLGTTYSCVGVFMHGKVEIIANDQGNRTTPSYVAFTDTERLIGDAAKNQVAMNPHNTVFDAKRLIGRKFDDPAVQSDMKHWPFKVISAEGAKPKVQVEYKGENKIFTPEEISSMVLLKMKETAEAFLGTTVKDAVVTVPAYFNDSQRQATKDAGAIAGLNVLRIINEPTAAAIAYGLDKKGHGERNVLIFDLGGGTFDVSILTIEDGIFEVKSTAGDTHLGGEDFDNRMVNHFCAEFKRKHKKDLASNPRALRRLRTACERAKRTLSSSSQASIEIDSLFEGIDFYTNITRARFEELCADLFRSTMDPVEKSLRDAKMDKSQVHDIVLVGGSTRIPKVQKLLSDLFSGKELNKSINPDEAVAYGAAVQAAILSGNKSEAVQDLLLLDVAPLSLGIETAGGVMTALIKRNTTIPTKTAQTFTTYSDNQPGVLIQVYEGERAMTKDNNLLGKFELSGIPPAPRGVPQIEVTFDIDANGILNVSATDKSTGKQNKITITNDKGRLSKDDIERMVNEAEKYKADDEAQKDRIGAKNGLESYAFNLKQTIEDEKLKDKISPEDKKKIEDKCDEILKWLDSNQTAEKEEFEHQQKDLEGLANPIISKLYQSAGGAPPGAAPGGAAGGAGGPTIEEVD
T3 sequence (P09446 whole entry A379V): as the sequence (P09446 whole entry D384N) above, with A379V, N384D counted along it
T1 sequence (P09446 whole entry): as the sequence (P09446 whole entry D384N) above, with N384D counted along it
T2 sequence (P09446 whole entry D233N): as the sequence (P09446 whole entry D384N) above, with D233N, N384D counted along it

B1: BAG-1 (nematode nucleotide exchange factor), fluorescently labelled (natural protein, C. elegans, UniProt O44739 1-210, looked up)
chain: MKVNVSCSSVQTTIDILEENQGEDESILTLGQLRDRIATDNDVDVETMKLLHRGKFLQGADDVSLSTLNFKENDKIIVMGGKNALVDDAGFKMLMQYEKHNLSNLQKAYDLNLRDVADLERGFLEKPKQVEMGKKLEKKVKYFNEEAERHLETLDGMNIITETTPENQAKRNREKRKTLVNGIQTLLNQNDALLRRLQEYQSVLNGDIPE
modifications: ATTO 488 C5-maleimide at its cysteine residue
notes: BAG-1, nucleotide exchange factor of Hsc70 in C. elegans; unlabelled BAG-1 was used in the ATPase assays
With B1, the binding result (in series [1]; with Hsc70 D233N; with Hsc70 A379V; with Hsc70 D384N) was “binds” each time.

B2: Hsc70 S321F (natural protein)
chain: not shown
notes: Hsc70 (HSP-1) of C. elegans, encoded by hsp-1, with the suppressor mutation S321F; forms heterogeneous oligomers; source: expressed from mutated pET28b-Hsc70 (QuickChange PCR), purified (Ni-NTA, ion-exchange, size exclusion chromatography)
As for B2, the binding result in series [2] is reported as “binds”.

For the origin of these results see PMC6697693, “head-bent resistant Hsc70 variants show reduced Hsp40 affinity and altered protein folding activity” (Scientific Reports, 2019).
